Reference: the supplement of paper PMC9112550, “Optimization of the antimicrobial peptide Bac7 by deep mutational scanning” (BMC Biology, 2022)

Test system: Escherichia coli TOP10
Assay: shrunken log2 fold change of peptide-encoding DNA abundance (4.5 h post-induction vs induction); higher = less antimicrobial activity (less host growth inhibition)
Details: time post-induction: 4.5 h; library: site-saturation at positions 5, 18, 19, 20
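Note: peptides expressed intracellularly from a pBAD plasmid library in pooled LB shake-flask culture, induced with 0.3% L-arabinose, DNA abundance read by NGS, three biological replicates, DESeq2 with apeglm shrinkage.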

Sequence	shrunken log2 fold change
RRIRRRPPRLPRPRPRPIRSPRP	0.022
RRIRPRPPRLPRPRPRPKGRPRP	-0.086
RRIRKRPPRLPRPRPRPVDNPRP	-0.0705
RRIRVRPPRLPRPRPRPYCYPRP	-0.745
RRIRVRPPRLPRPRPRPKENPRP	0.184
RRIRWRPPRLPRPRPRPYANPRP	-0.399
RRIRPRPPRLPRPRPRPKPPPRP	0.538
RRIRYRPPRLPRPRPRPWSLPRP	0.0143
RRIRGRPPRLPRPRPRPCPIPRP	-0.0298
RRIRYRPPRLPRPRPRPKTHPRP	-0.661
RRIRFRPPRLPRPRPRPRTPPRP	0.534
RRIRCRPPRLPRPRPRPADIPRP	-0.941
RRIRNRPPRLPRPRPRPQDKPRP	0.0859
RRIRIRPPRLPRPRPRPELTPRP	-0.0457
RRIRYRPPRLPRPRPRPSGFPRP	-0.99
RRIRLRPPRLPRPRPRPRGDPRP	0.553
RRIRMRPPRLPRPRPRPFTGPRP	0.0078
RRIRHRPPRLPRPRPRPQEWPRP	-0.119
RRIRIRPPRLPRPRPRPDHFPRP	-0.0602
RRIRMRPPRLPRPRPRPEWFPRP	0.0369
RRIRIRPPRLPRPRPRPWYFPRP	-0.19
RRIRWRPPRLPRPRPRPPCAPRP	0.563
RRIRPRPPRLPRPRPRPVRNPRP	0.22
RRIRHRPPRLPRPRPRPHPQPRP	-0.185
RRIRRRPPRLPRPRPRPQFCPRP	-0.0309

Sequence	shrunken log2 fold change
RRIRTRPPRLPRPRPRPAYYPRP	0.0141
RRIRPRPPRLPRPRPRPLDHPRP	-0.114
RRIRARPPRLPRPRPRPMHTPRP	0.261
RRIRKRPPRLPRPRPRPDDDPRP	3.89
RRIRGRPPRLPRPRPRPGCCPRP	1.2
RRIRMRPPRLPRPRPRPWNPPRP	0.12
RRIRIRPPRLPRPRPRPQIIPRP	-0.213
RRIRGRPPRLPRPRPRPHLVPRP	0.294
RRIRKRPPRLPRPRPRPGRDPRP	0.688
RRIRMRPPRLPRPRPRPCRGPRP	0.0309
RRIRLRPPRLPRPRPRPISEPRP	0.00295
RRIRMRPPRLPRPRPRPKNQPRP	0.618
RRIRCRPPRLPRPRPRPEQMPRP	0.45
RRIRGRPPRLPRPRPRPKDFPRP	-0.0214
RRIRGRPPRLPRPRPRPGNQPRP	-0.0828
RRIRNRPPRLPRPRPRPVITPRP	-0.662
RRIRYRPPRLPRPRPRPHHIPRP	-0.356
RRIRPRPPRLPRPRPRPSYKPRP	-0.564
RRIRNRPPRLPRPRPRPQYFPRP	-0.00973
RRIRWRPPRLPRPRPRPVCKPRP	0.643
RRIRARPPRLPRPRPRPKMDPRP	0.384
RRIRIRPPRLPRPRPRPNGTPRP	-0.201
RRIRNRPPRLPRPRPRPCIFPRP	-0.697
RRIRMRPPRLPRPRPRPVHYPRP	-0.0505
RRIRLRPPRLPRPRPRPTERPRP	-0.189

Sequence	shrunken log2 fold change
RRIRVRPPRLPRPRPRPKRPPRP	0.32
RRIRVRPPRLPRPRPRPNITPRP	-0.808
RRIRMRPPRLPRPRPRPHHGPRP	-0.762
RRIRYRPPRLPRPRPRPMTAPRP	-0.0394
RRIRERPPRLPRPRPRPMLVPRP	-0.225
RRIRHRPPRLPRPRPRPLLEPRP	0.0851
RRIRARPPRLPRPRPRPRHIPRP	-0.177
RRIRSRPPRLPRPRPRPWVTPRP	-0.89
RRIRYRPPRLPRPRPRPDRPPRP	-0.215
RRIRIRPPRLPRPRPRPDPFPRP	0.261
RRIRYRPPRLPRPRPRPCPNPRP	0.626
RRIRQRPPRLPRPRPRPISHPRP	-0.421
RRIRMRPPRLPRPRPRPEYKPRP	0.359
RRIRDRPPRLPRPRPRPYSFPRP	-0.0868
RRIRKRPPRLPRPRPRPEPKPRP	0.191
RRIRYRPPRLPRPRPRPWKNPRP	-0.458
RRIRFRPPRLPRPRPRPWQYPRP	0.0191
RRIRTRPPRLPRPRPRPPPEPRP	0.643
RRIRQRPPRLPRPRPRPTICPRP	-0.114
RRIRFRPPRLPRPRPRPFCKPRP	-0.374
RRIRQRPPRLPRPRPRPIRAPRP	0.0231
RRIRERPPRLPRPRPRPEWPPRP	0.102
RRIRSRPPRLPRPRPRPFITPRP	-0.798
RRIRARPPRLPRPRPRPDNFPRP	-0.294
RRIRSRPPRLPRPRPRPCCEPRP	-0.22

Sequence	shrunken log2 fold change
RRIRHRPPRLPRPRPRPNLEPRP	0.127
RRIRWRPPRLPRPRPRPHPRPRP	0.451
RRIRRRPPRLPRPRPRPDEYPRP	-0.0588
RRIRNRPPRLPRPRPRPIWSPRP	0.0615
RRIRKRPPRLPRPRPRPEWEPRP	0.271
RRIRVRPPRLPRPRPRPNCNPRP	-0.273
RRIRPRPPRLPRPRPRPFGCPRP	-0.144
RRIRPRPPRLPRPRPRPGTIPRP	-0.171
RRIRPRPPRLPRPRPRPVWRPRP	0.516
RRIRWRPPRLPRPRPRPAMRPRP	1.1
RRIRTRPPRLPRPRPRPIEKPRP	-0.478
RRIRIRPPRLPRPRPRPQLVPRP	-0.163
RRIRFRPPRLPRPRPRPRMGPRP	0.302
RRIRHRPPRLPRPRPRPRAKPRP	1.14
RRIRMRPPRLPRPRPRPNNWPRP	-0.0238
RRIRPRPPRLPRPRPRPYANPRP	-0.231
RRIRDRPPRLPRPRPRPRVTPRP	-0.0173
RRIRYRPPRLPRPRPRPYSVPRP	-0.0202
RRIRWRPPRLPRPRPRPSSDPRP	-0.0856
RRIRSRPPRLPRPRPRPLFAPRP	0.0687
RRIRVRPPRLPRPRPRPHWMPRP	-0.32
RRIRARPPRLPRPRPRPQLQPRP	0.426
RRIRARPPRLPRPRPRPVVNPRP	0.346
RRIRVRPPRLPRPRPRPYAYPRP	0.0587
RRIRKRPPRLPRPRPRPLEGPRP	0.162

Sequence	shrunken log2 fold change
RRIRPRPPRLPRPRPRPMRQPRP	0.398
RRIRARPPRLPRPRPRPFPCPRP	0.0215
RRIRPRPPRLPRPRPRPDIDPRP	-0.144
RRIRGRPPRLPRPRPRPQPIPRP	0.114
RRIRRRPPRLPRPRPRPNFFPRP	0.184
RRIRMRPPRLPRPRPRPNIGPRP	-0.0302
RRIRYRPPRLPRPRPRPDVWPRP	-0.194
RRIRIRPPRLPRPRPRPHDDPRP	-0.177
RRIRWRPPRLPRPRPRPTPQPRP	1.63
RRIRVRPPRLPRPRPRPPFEPRP	0.26
RRIRHRPPRLPRPRPRPEVMPRP	-0.0878
RRIRCRPPRLPRPRPRPQRHPRP	-0.173
RRIRIRPPRLPRPRPRPEDQPRP	-0.000348
RRIRMRPPRLPRPRPRPCEAPRP	0.807
RRIRPRPPRLPRPRPRPFPDPRP	0.00657
RRIRPRPPRLPRPRPRPFQWPRP	-0.0697
RRIRLRPPRLPRPRPRPFYHPRP	-0.821
RRIRMRPPRLPRPRPRPREAPRP	1.82
RRIRPRPPRLPRPRPRPWWAPRP	0.00677
RRIRGRPPRLPRPRPRPKEMPRP	0.5
RRIRDRPPRLPRPRPRPMNHPRP	-0.513
RRIRERPPRLPRPRPRPAKIPRP	0.039
RRIRYRPPRLPRPRPRPHIQPRP	-1.03
RRIRVRPPRLPRPRPRPFVRPRP	-0.0708
RRIRIRPPRLPRPRPRPIWSPRP	0.025
